Measurements taken from article PMC6133773.

Tests used:
purified protein [1] = substrate: C[C@](O)(CO)[C@H](O)C=CP(=O)(O)O; experiment: purified protein; settings: Mg2+; CTP active site (alternative substrate)
purified protein [2] = substrate: C[C@](O)(CO)[C@H](O)C[C@H](F)P(=O)(O)O; experiment: purified protein; settings: Mg2+; CTP active site (alternative substrate)
purified protein [3] = substrate: C[C@](O)(CO)[C@H](O)C=C(F)P(=O)(O)O; experiment: purified protein; settings: Mg2+; CTP active site (alternative substrate)
purified protein [4] = substrate: C[C@](O)(CO)[C@H](O)CCP(=O)(O)O; experiment: purified protein; settings: Mg2+; CTP active site (alternative substrate)
purified protein [5] = substrate: C[C@](O)(CO)[C@H](O)CC(F)(F)P(=O)(O)O; experiment: purified protein; settings: Mg2+; CTP active site (alternative substrate)
[6] = substrate: C[C@](O)(CO)[C@H](O)COP(=O)(O)O; experiment: Michaelis-Menten kinetics; assay type: biochemical, Escherichia coli; settings: Mg2+; CTP active site; natural substrate

B1: IspD (Escherichia coli K-12) (protein)
chain: ATTHLDVCAVVPAAGFGRRMQTECPKQYLSIGNQTILEHSVHALLAHPRVKRVVIAISPGDSRFAQLPLANHPQITVVDGGDERADSVLAGLKAAGDAQWVLVHDAARPCLHQDDLARLLALSETSRTGGILAAPVRDTMKRAEPGKNAIAHTVDRNGLWHALTPQFFPRELLHDCLTRALNEGATITDEASALEYCGFHPQLVEGRADNIKVTRPEDLALAEFYLTRTIHQENT
Question: Which Km (purified protein [1]) does the source give for B1 here?
Answer: 4000 ± 1000 µM

Question: What about the kcat (purified protein [1]) of the same protein?
Answer: 0.09 ± 0.01 s⁻¹

Question: And the kcat/Km (purified protein [1])?
Answer: 20 M⁻¹ s⁻¹

Question: What about the Km (purified protein [2]) of the same protein?
Answer: 1000 ± 100 µM

Question: And the kcat (purified protein [2])?
Answer: 0.217 ± 0.01 s⁻¹

Question: And the kcat/Km (purified protein [2])?
Answer: 220 M⁻¹ s⁻¹

Question: And the Km (purified protein [3])?
Answer: 700 ± 500 µM

Question: What about the Km (purified protein [4]) of the same protein?
Answer: 1300 ± 200 µM

Question: And the Km (purified protein [5])?
Answer: 1900 ± 700 µM

Question: What about the kcat (purified protein [5]) of the same protein?
Answer: 0.2 ± 0.0333 s⁻¹

Question: And the kcat/Km (purified protein [5])?
Answer: 110 M⁻¹ s⁻¹

Question: And the Km [6]?
Answer: 100 ± 20 µM

Question: What about the kcat [6] of the same protein?
Answer: 18.2 ± 1 s⁻¹

Question: And the kcat/Km [6]?
Answer: 180000 M⁻¹ s⁻¹
